In patent publication US20240158505A1 (published 2024):
Numbering of substitutions follows the chain as printed.

T1: Recombinant Human B7-H3 Fc chimera Protein (Rndsystem, Cat #1027-B3-100) (human, UniProt Q5ZPR3 29-245)
T1 chain: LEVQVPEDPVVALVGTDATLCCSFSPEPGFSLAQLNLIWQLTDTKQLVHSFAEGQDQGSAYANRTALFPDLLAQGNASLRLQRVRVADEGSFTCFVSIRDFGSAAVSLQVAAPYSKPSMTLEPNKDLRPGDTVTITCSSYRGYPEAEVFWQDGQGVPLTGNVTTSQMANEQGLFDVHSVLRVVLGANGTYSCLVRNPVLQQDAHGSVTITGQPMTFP

B1: #3 antibody (antibody, V domains shown)
VH: EVQLLESGGGLVQPGGSLRLSCAASGFTFSTYYMTWVRQAPGKGLEWVSIINPRGGSTSYAEKFQGRFTISRDNSKNTLYLQMNSLRAEDTAVYYCARWNLGMDVWGQGTLVTVSS
VL: EIVLTQSPGTLSLSPGERATLSCRVSQSISSYLNWYQQKPGQAPRLLIYDASHRATGIPDRFSGSGSGTDFTLTISRLEPEDFAVYYCQQYYAPSVTFGQGTKVEIK
B2: #2 antibody (antibody, V domains shown)
VH: EVQLLESGGGLVQPGGSLRLSCAASGFTFSAYYMIWVRQAPGKGLEWVSITNPSGGVTSYAQKFQGRFTISRDNSKNTLYLQMNSLRAEDTAVYYCARVGGRGFDIWGQGTLVTVSS
VL: EIVLTQSPGTLSLSPGERATLSCHASQGISNYVAWYQQKPGQAPRLLIYDASNRATGIPDRFSGSGSGTDFTLTISHLEPEDFAVYYCQQSYSTLLTFGQGTKVEIK
B3: #1 antibody (antibody, V domains shown)
VH: EVQLLESGGGLVQPGGSLRLSCAASGFTFSSYAMSWVRQAPGKGLEWVSTITGSGGSTYYADSVKGRFTISRDNSKNTLYLQMNSLRAEDTAVYYCARYKSGAFDIWGQGTLVTVSS
VL: EIVLTQSPGTLSLSPGERATLSCRASQGIGNYLGWYQQKPGQAPRLLIYTASSLQSGIPDRFSGSGSGTDFTLTISRLEPEDFAVYYCQQGYSTPSWTFGQGTKVEIK
B4: #8 antibody (antibody, V domains shown)
VH: EVQLLESGGGLVQPGSSLRLSCAASGFTFSSYWISWVRQAPGKGLEWVSEISPSGNTNYNPSLKSRFTISRDNSKNTLYLQMNSLRAEDTAVYYCAREVGDLLDYWGQGTLVTVSS
VL: QSVLTQPPSASGTPGQRVTISCSGSNIGNNYVSWYQQLPGTAPKLLIYQDSKRPSGVPDRFSGSKSGTSASLAISGLRSEDEADYYCLVWDRSSDHFVFGGGTKLTVL
B5: #4 antibody (antibody, V domains shown)
VH: EVQLLESGGGLVQPGGSLRLSCAASGFTFSSYGMHWVRQAPGKGLEWVSAISGSGTSIYYANSVKSRFTISRDNSKNTLYLQMNSLRAEDTAVYYCARGAGWFDYWGQGTLVTVSS
VL: QSVLTQPPSASGTPGQRVTISCSGSTSNIGSNTVNWYQQLPGTAPKLLIYGKNIRPNGVPDRFSGSKSGTSASLAISGLHSEDEADYYCQSYDSSLSGWVFGGGTKLTVL
B6: #6 antibody (antibody, V domains shown)
VH: EVQLLESGGGLVQPGGSLRLSCAASGFTFSTYAISWVRQAPGKGLEWVSSIYYSGYTHYNPSLESRFTISRDNSKNTLYLQMNSLRAEDTAVYYCARGYSGWMDVWGQGTLVTVSS
VL: QSVLTQPPSASGTPGQRVTISCGGNNIGSKSVHWYQQLPGTAPKLLIYDNNKRPSGVPNRFSGSKSGTSASLAISGLRSEDEADYYCAAWDDSLNVPVFGGGTKLTVL
B7: #9 antibody (antibody, V domains shown)
VH: EVQLLESGGGLVQPGGSLRLSCAASGFTFSSYAMNWVRQAPGKGLEWVSTISGSGGQTYYADSVKGRFTISRDNSKNTLYLQMNSLRAEDTAVYYCARWRSIWAFDYWGQGTLVTVSS
VL: B6 VL with G23S, G24D, N59D, A88G, A89T, N95S, V96G
B8: #7 antibody (antibody, V domains shown)
VH: EVQLLESGGGLVQPGGSLRLSCAASGFTFSNFWIGWVRQAPGKGLEWVSWINPPGSITSYADSVKGRFTISRDNSKDTLYLQMNSLRAEDTAVYYCAREVGDVLDYWGQGTLVTVSS
VL: QSVLTQPPSASGTPGQRVTISCTGTSSDIGRYNYVSWYQQLPGTAPKLLIYRNTQRPSGVPDRFSGSKSGTSASLAISGLRSEDEADYYCGTWDSSLNAYVFGGGTKLTVL
B9: #5 antibody (antibody, V domains shown)
VH: EVQLLESGGGLVQPGGSLRLSCAASGFTFSTYAMSWVRQAPGKGLEWVSAISGSGGSTLYADSVKGRFTISRDNSKNTLYLQMNSLRAEDTAVYYCARGGSATWAFDLWGQGTLVTVSS
VL: QSVLTQPPSASGTPGQRVTISCSGSSSNIGSNYVYWYQQLPGTAPKLLIYRNNQRPSGVPDRFSGSKSGTSASLAISGLRSEDEADYYCGTWDSSLSGVVFGGGTKLTVL

Molecular target: B7-H3 expressed on the cell membrane (MCF-7, RKO and RKO/B7H3 cell lines) (UniProt Q5ZPR3)
Sequence (Q5ZPR3 29-534): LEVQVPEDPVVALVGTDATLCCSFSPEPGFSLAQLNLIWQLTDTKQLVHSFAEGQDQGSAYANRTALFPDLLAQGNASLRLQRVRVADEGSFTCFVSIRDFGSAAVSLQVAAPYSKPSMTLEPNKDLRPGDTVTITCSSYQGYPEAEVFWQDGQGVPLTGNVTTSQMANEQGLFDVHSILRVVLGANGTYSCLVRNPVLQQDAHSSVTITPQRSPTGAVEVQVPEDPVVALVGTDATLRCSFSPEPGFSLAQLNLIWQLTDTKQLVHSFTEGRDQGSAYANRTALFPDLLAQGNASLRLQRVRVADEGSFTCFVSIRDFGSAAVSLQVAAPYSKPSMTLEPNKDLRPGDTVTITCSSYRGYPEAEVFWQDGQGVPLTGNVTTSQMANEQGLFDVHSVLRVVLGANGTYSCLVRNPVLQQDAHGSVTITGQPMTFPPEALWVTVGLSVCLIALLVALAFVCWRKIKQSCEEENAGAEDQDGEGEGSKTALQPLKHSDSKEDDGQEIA
Assay: cell ELISA on fixed MCF-7 cells

| EC50 | Binder |
| --- | --- |
| 0.197 nM | B1 |
| 0.061 nM | B2 |
| 0.605 nM | B3 |
| 0.159 nM | B4 |
| 0.502 nM | B5 |
| 0.234 nM | B6 |
| 0.322 nM | B7 |
| 1.01 nM | B8 |
| 1.74 nM | B9 |

Molecular target: B7-H3 expressed on the cell membrane (MCF-7, RKO and RKO/B7H3 cell lines) (UniProt Q5ZPR3)
Assay: cell ELISA on fixed RKO/B7H3 cells

| EC50 | Binder |
| --- | --- |
| 0.065 nM | B1 |
| 0.036 nM | B2 |
| 0.015 nM | B3 |
| 0.06 nM | B4 |
| 0.042 nM | B5 |
| 0.065 nM | B6 |
| 0.05 nM | B7 |
| 0.187 nM | B8 |
| 0.091 nM | B9 |

Molecular target: T1, Recombinant Human B7-H3 Fc chimera …
Assay: ELISA

| EC50 | Binder |
| --- | --- |
| 1.1 nM | B1 |
| 0.42 nM | B2 |
| 0.18 nM | B3 |
| 0.63 nM | B4 |
| 0.55 nM | B5 |
| 1.86 nM | B6 |
| 1.1 nM | B7 |
| 1.8 nM | B8 |
| 1.2 nM | B9 |
